Assay: yeast display, Sf9 membrane polyspecificity reagent, FACS + sequencing; frameworks hold sequencing errors
In short: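 Nanobodies came from a synthetic yeast display library in Saccharomyces cerevisiae BJ5465, induced with galactose for 36–48 hours and stained for 1 hour at 4 °C with 10% biotinylated, detergent-solubilized Sf9 membrane reagent. Cells were enriched on streptavidin microbeads and then FACS-sorted, with low and high (top ~1%) gates set on anti-HA fluorescence for expression and streptavidin fluorescence for reagent binding. Each polyreactivity label reflects the gate a clone came from. Genes were amplified by colony PCR, sequenced by MiSeq 2 × 250 and filtered by CDR length.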

Sequence	polyreactivity (PSR sort gate)
QVQLVESGGGLVQAGGSLRLTCAASGRIFVYNAMGWYRQAPGKESEFVATITSSGGRTYYADSVKGRFTISRDNAKNTVYLQMNSLKTEDTAVYDCAASPHNYGRNTVYRYKYWGQGTQVTVSS	high polyreactivity
QVQLVESAAGLVQAGGSLRLSCAASGSTFGHYTMGWYRQAPGKERDLVAAISWSGGRTYYADSVKGRFTISRDYAKNTVYLQMNSLKPEDTAVYYCYVGYRGWSVNSWGQGTQVTVSS	high polyreactivity
QVQLVESGGGLVQAGGSLRLSCAASGIIFSPYAMGRYRQAPGKERELVAAITYSGDTTYYADSVKGRFTISRDNAKNTVYLQMNSLKPEDTAVYYCAVEDAGQGGDYWGQGTQVTVSS	low polyreactivity
QVQLVESGGGLVQAGGSLRLSCAASGSTIGLNARGWYRQAPGKERELVAAITRSDITNYADSVKGRFTISRDNAKNTVYLQMNRLKPEDTEVYYCAAESPLYWVDDFESGWRYYYSGQGTQVTVSS	low polyreactivity
QVQLVESGGGLVQAGGSLRLSCAASGSIFVWYVMGWSRPAAGKERELVAAITWSAARTYYADSVKGRFTISRDNAKNTVYLQMNSLKPEDTAVYYCAADHVSYQPSSRIFDYWGQGTQVTVSS	low polyreactivity
QVQLVESGGGLVQAGGSLRLSCAASGRTFRINAMGWYRQAPGKERELVAAISFRTDSTYYADSVKGRFTISRDNAKNTVYLQMNSLKPEDTAVYYCDARGLQVRTYDYWGQGTQVTVSS	high polyreactivity
QVQLVESGGGLVQAGGSLRLSCAASGSTYVSNAMGWYRQAPGKERELVAAISTGGGTCYADSVKGRFTISRDNAKNTVYLQMNSLKPEDTAVYYCNAVYVWWDGWGLYYWGQGTQVTVSS	low polyreactivity
QVQLVESGGGLVQAGGSLRLSCAASGITFYRYAMGWYRQAPGKERELVAAISASDGSTYYADSVKGRFTISRDHAKNTVYLQMNSLKPEDTAVYYCNARKGYSYGHWGQGTQVTVSS	high polyreactivity
QVQLVESGGGLVKEGGSLRLSCAASGNTIRVNAMGWYRQAPGKERELVAAISFSGGRTYYADSVKGRFTISRDNAKNTVYFQMNSLKPEDTGVYYCAALRRYPRPFIYGYWGQVTQVTVSS	low polyreactivity
QVQLVESGGGLVQAGGSLRLSCAASGSTFSNYAMGWYRQAPGKERELVAAISRRGTSTYYADSVKGRFTISRDNAKNTVYLQMNSLKPEDTAVYYCAADYFRYTYDYWGQGTQVTVSS	high polyreactivity
QVQLVESGGGLVQAGGSLRLSCAASGRTFYSNAMGWYRQAPGKERELVATISSSGGSTYYADSVKGRFTISRDNAKNTVYLQMNSLKPEDTAVYYCAADPSGDYWGQGTQVTVSS	low polyreactivity
QVQLVESGGGLVQAGGSLRLSCAASGSPFKRYAMGWYRQAPGKERELVASITRRGGSTYYADSVKGRFTISRDNAKNTVYLKMNSLKPEDSAVYYCAALQGRSSARQDSYGYWGQGTQVTVSS	high polyreactivity
QVQLVESGGGLVQAGGSLRLRCAASGRTFDKYAMGWYRQAPGKERELVAAISYDAGRTYYADSVKGRFTISRDNAKNTVYLQMNSLKPEDNAVYFCNAVRFRGFGWGQGTQVTVSS	high polyreactivity
QVQLVESGGGLVQAGGSLRLSCAASGSTFQPYAMGWYRQAPGKERELVAAITFSGGSTYYADSVKGRFTISRDNAKNTVYLQMNSLKPEDTAVYYCAAYRRPDYGSWGQGTQVTVSS	high polyreactivity
QVQLVESGGGLVQAGGSLRLICAASGYTFGYYAMGWYRQAPGKERELVAAISWRGARTNYADSVEGRFTISRDNAKNTVYLQMNSLKPEDTAVYYCAARGGYYQGRYKYGYWGQGTQVTVSS	high polyreactivity
QVQLVESGGGLVQAGGSLRLSCAASGSIFTPNAMGWYRQAPGKERELVAAISSSSDRTYYADSVKGRFTISRDNAKNTVYLQMNSLKPEDTAVYYCAAYAQKRYYWGQVTQVTVSS	high polyreactivity
QVQLVESGGGLVQAGGSLRLSCAASGFIFPLYTMGWYRQAPGKEREVVAAISWIGGRTYYADSVKGRFTISRDFAKNTVYLQMISLKPEDTAVYFCGKDPSGGGYGYDYWGQGTQVTVTS	low polyreactivity
QVQLVDSVGGLVQAGGSLRLSCAASGSTFVYNTMGWYRQEPGKEREMVAAISYRGSTYYADSVKGRFTISRENAKNTVFLQMNSLKPEDNAVYYCNAPRRQYEYDYWGQGTQVTVSS	high polyreactivity
QVQLVESGGGLVQAGGSLRLSCAASGGTFLFYGMGWYRQAPGNERELVAVITWSGGSTYYADSVKGRFTISRDTAKNTVYLHMNSLKPVDTAVYYCAADGYFYFDYPWMNYWGQGTQVTVSS	low polyreactivity
QVQLVESGGGLVQAGGSLRLSCAASGITFRLYAMGWSRQAPGKEREFVAAISRRGGSTYYADSVKGRFTISRDNAKNSVYLQMNSLKPEDTAVYYCARYGLVYALGYWGQGTQVTVSS	high polyreactivity
HVQLVESGGGLVQAGGSLRLSCADSGRILYYYAMRWYIQEPGKERELVAAINSSGGSPYYADSVKGRFTISRDIAKNTVYLQMNSLKPEDTAVYYGAAEYQVQGYDYWGQGSQVTVSS	high polyreactivity
QVQLVESGGGLVQAGGSLRLSCAASGRIFGLYVLGGYRQAPGKERELVAAIDDSGGDTYDADSVKGRFTISRDNAKNTVYIQMNSLKPEDTAVYYCPADYWGYYYGGYYYLRDYWGQGTQVTVSS	high polyreactivity

Sequence	polyreactivity (PSR sort gate)
QVQLVESGGGLVQAGGSLRLSCAASGRISQIYAMGWYRQAPGKERELVASISSSGSRTYYADSVKGRFTISRDNAKNTVYLQMNSLKPEDTAVYYCAARWWARSRGPYDYWGQGTQVTVSS	high polyreactivity
QVHLVESGGGLVQAGGSLRLSSAASGSIFDGNGMGWYRQAPGKERELVASISGDGSTNYADSVKGRFTISRDNAKNTVYLQMNSLKPEDTAVYYCNARSYLTRPWWWGGPYDYWGQGTKVTVSS	low polyreactivity
QVQLVESGGGLVQAGGSLRLSCAASGSTFAYNAMGWYRQAPGKERELVAAISYGGDDTYYADSVKGRFTISRDNAKNTVYLQMNSLKPEDTAVYYCNARSRTYRSALGNLYHYDYWGQGTQVTVSS	high polyreactivity
QVQIVESGGGLVQEGGSLRLRCAASGFTFGYYRMGWYRQAPGKERELVAAISRSAGSTYYADSVKGRFTISRDNAKNTVYLQMNSLKPEDTAVYYCNAAVFRTEGGYSTFNYWGQGSQVTVSS	high polyreactivity
QVQLVESGGGLVQAGGSLRLSCAASGFIFRRYAMGWYRQAPGKERELVAAITRSGGSTYYADSVKGRFTISRDNAKNTVYLQMNSLKPEDTAVYYCAAPYFGANGKPEYGYWGQGTQVTVSS	high polyreactivity
QVHLGESGGGLVQAGGSLRLSCAASGSIFGYYAMGWYRQAPGKERELVAAITFRDGSTYYADSVKGRFTISRDNAKNTVYLQMNSLKPEDTAVYYCAARVTYSRGYRGGSRTKYDYWGQGTQVTVSS	low polyreactivity
QVQLQESGGGLVQAGGSLLSCAASGTISYYREMGWYRQSPGKERELVAGIGVGTITYYADSVKGRFTISRDNAKNTVYLQMNSLKPEDTAVYYCAAHIDGNDSNAYWGQGTQVTVSS	low polyreactivity
QVQLVESGGGLVQAGGSLRLSCAASGIIFFRNPMGWYRQAPGKERELVAAISSGGSTYYADSVKGRFTISRDNAKNTVYLQMNSLKPEDTAVYYCNQVGPLYYASYDYWGQGTQGTVSS	low polyreactivity
QVQLVESGGGLVQAGGSLRLSCAASGRTFSWYVMGWSRQAPGKERALVAAISWNGGRTYYADSVKGRFTISRDNAKNTVYLQMNRLKPEDTAVYYCATGPDPKYDYWGQGTQVTVSS	high polyreactivity
QVQLVESGGGLVQAGGSLRLSCAASGSTFPKNAKGWYRPAPGKERELVAAINTGGSTYYADSVKGRFTISRDNAKNTVYLQMNSLKPEDTAVYYCAARDNYHRDVGHPYDYWGQGTQVTVSS	low polyreactivity
QVQLVESGGGLVKAGGSLRLSCAASGRTFSSNAMGWNRQAPGKERELVAAISSSGAGTYYADSVKGRFTISRDNAKNTVYFQMTILKPEDSAVYYCAARANSYHSFTSPYDYWGQGTQVTVSS	low polyreactivity
QVQLVESGGGLVQAGGSLRLSCAASGRTFPYNAMGWYRQAPGKERELVAAISYSGGRTYYADSVKGRFTISRDNAKNTFYLQMNSLKPEDTAVYYCNALGSGREDDYWGQGTQVTVSS	high polyreactivity
QVQLVESGGGLVQAGGSLRLSCAASGSTFTSYAMGWYRQAPGKERELVAAISRSGGRTYYADSVKGRFTISRDNAKYTVYLQMNSLKPEDTAVYYCNAASLSKSDYWGQGTQVTVSS	high polyreactivity
QVQLVESGGGLVQAGGSLRLSCAASGRTFLVYAMGWYRQAPGKERELVAAIRYSGSSTYADSVKGRFTISRDNAKNTVYLQMNSLKPEDTAVYDCNARRASYRSIYDYWGHGTQVTVSS	high polyreactivity
QVQIVESGGGLVQAGGSLRLSCAASGRIFGAYGMGWYRQAPGKERELVAAISNGGRTSYADSVKGRFTISRDNAKNTVYLQMNSLKPEDTAVYYCAAVYWQWYGAYDYWGQGTQVTVSS	high polyreactivity
QVQLVESGGGLVQAGGSLRLSCAASGRIFEPYAMGWYRQAPGKERELVAAISWSGTSTRYADSVKGRFTISRDNAKNTVYLQMNSLKPEDTAVYYCAARGNNPARGGYWGQGTQVTVSS	high polyreactivity
QVQLVESGGGLVQAGGSLRLSCAASGSTFYLYAMGWYRQAPGKERELVAGITGSGGRTYYADSVKGRFTISRDNAKNTVYLQLNSLKPEDTAVYYCNKRRASWSPAGGTYNYWGQGSQVTVSS	low polyreactivity
QVHLVESGGGLVQAGGSLRLSCPASGRIFRVYAMGWYRQEPGKERELVAAISYSGGRTFYADSVKGRFTISRDNAKNTVYFQMNSLKPEDTAVYYGAAKSYYTQALPPFDYWGQGTQVTVSS	low polyreactivity
QVQLVESGGGLVQAGGSLRLSCAASGSTFTTYVMGWYRQAPGKERELVAAISRRGGRTYYADSVKGRFTISRDNAKNTVYLQMNSLKPEDTAVYYCNKVYPTYYYYRGGPTEYDYWGQGTQVTVSS	high polyreactivity
QVQLVESGGGLVQAGGSLRLSCAASGRTFWSYAMGWYRQAPGKEREFVAAISRRGGITYYADSVKGRFTLSRDNAKNTVYLQMNSLKPEDTAVYYCAKGAQSYYGGQVKYDYWGQGTQVTVSS	high polyreactivity
QVQLVESGGGLVQAAGSLRLSCAPSGSIYNYTIGWYRQAPGKERELVAAISRSGTRTYYADSVKGRFTISRDNAKNTVYLQMNSLKPEDTAVYYCAARILPPGDNVDDDYWGQGTQVTVSS	high polyreactivity

From the nanobody polyreactivity screen of Harvey et al. (2022)
